Experimental data from US11091795B2, “Compositions and methods for diagnosing and treating arrhythmias” (Arizona Board of Regents on Behalf of the University of …, priority 2016, dated 2021).
“Also recorded” adds a separate entry of the source.

Columns and labels:
[1] = system: patients with sickle cell disease; settings: cited from earlier work
[2] = system: PBMCs isolated and cultured from patients with sickle cell disease; test: Heme administration in vitro to PBMCs from sickle cell disease patients; format: cell-based, human; settings: heme 100 uM, 16 h
Description: IL-18, associated with prolonged QTc and mortality, is induced by heme in PBMCs.

sickle mice = settings: cited from earlier work
[3] = system: adults with moderate to severe sickle cell disease; settings: cited from earlier work
IL-18 = target: T1, IL-18 (Mus musculus, UniProt P70380); test: Chronic (sustained) inhibition of IL-18 with IL-18bp in sickle mice; format: in vivo; settings: for myocardial fibrosis (Picrosirius Red staining): chronic/sustained (3 weeks) IL-18 inhibition; for diastolic function (change in E/E′, LV filling pressures, on echocardiography): chronic/sustained IL-18 inhibition
T1 construct: endogenous in cells; host or cells: sickle mice, in vivo (circulating and cardiac IL-18)
T1 sequence (P70380 36-192): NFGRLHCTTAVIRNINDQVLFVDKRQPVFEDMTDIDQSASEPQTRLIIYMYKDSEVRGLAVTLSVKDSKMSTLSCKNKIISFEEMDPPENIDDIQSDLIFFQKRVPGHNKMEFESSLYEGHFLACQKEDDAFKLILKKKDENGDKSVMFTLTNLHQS
Description: Based on the association of IL-18 with myocardial fibrosis and diastolic dysfunction, the functional role of IL-18 in the development of myocardial fibrosis and diastolic dysfunction was tested. […] The mechanisms of how IL-18 mediates sickle cardiomyopathy with prolonged repolarization, diastolic dysfunction, and myocardial fibrosis are unclear. Given the absence of significant IL-18 effect on WT mice and the vulnerability of sickle mice, microarray transcript profiling in murine LV tissue between the two mice was performed. A total of 1611 probes (812 annotated genes) were differentially expressed between sickle and WT mice (P≤0.05). […] Additionally, RT-PCR and western blot reveal sickle mice have reduced myocardial KCND2 and KCND3 gene expression levels (FIG. 6B) consistent with increased APD.
It is contemplated that IL-18/IL-18R signaling implicates Nox4 function in sickle heart arrhythmic response. In an acute setting, it is contemplated that IL-18-mediated Nox4 activation downregulates KCND2/KCND3 expression and associated Ito activity which prolongs APD promoting VT; in a chronic setting, it is contemplated that IL-18 induces Nox4-mediated myocardial apoptosis and subsequent fibrosis resulting in pathologic electrophysiological remodeling enhancing VT vulnerability. Briefly, myocardial action potentials reflect the sequential activation and inactivation of inward depolarizing (Na^+, Ca^2+) and outward repolarizing (K^+) current-carrying ion channels. The K^+ channel function determines membrane potential and refractoriness of the myocardium. […] These observations are coupled with increased nitrotyrosine (ROS marker) levels and p38 MAPK activation (within 5 mins and sustained for 45 mins) in vivo. Reduced Ito is also associated with IL-18-induced prolonged APD, promoting early after depolarizations (EADs) and reentry formation in sickle cell hearts. Several reports have shown direct Nox4 interactions with IL-18R as well as Nox4-medaited p38 MAPK activation in cardiomyocytes resulting in reduced KCND2/KCND3 mRNA expression (and Ito current) (Li et al., 2012. J Mol Cell Cardiol 52:971-977; Zhou et al., 2008. J Mol Cell Cardiol 45:832-838; Zhou et al., 2006. Circ Res 98:1040-1047). Single cell voltage clamp and organ level optical mapping is used to evaluate the downstream effects of IL-18 and Nox4. […] Based on these acute and chronic data, a mutant mouse with cardiac-specific Nox4 genetic depletion in a sickle cell mouse background is generated to functionally validate the role of cardiac Nox4 in sickle cell cardiomyopathy and inducible VT.

sickle mice hearts = test: Optical mapping of ex vivo perfused hearts with exogenous IL-18 in the perfusate; set-up: species or system mouse
Description: (§1) Optical mapping: WT and sickle male mice (12-16 weeks) hearts underwent optical mapping. The optical apparatus has been previously described (Rutledge et al., 2014; supra). The values are presented as the mean±standard deviation. Student t test was used and a P value of <0.05 was considered statistically significant. Sample […] and activation maps with BCL pacing were made for both the control and sickle cell hearts.
(§2) To establish cause and effect, acute effects of IL-18 on the myocardial electrical phenotype were evaluated further in sickle mice. […] Longer perfusion of IL-18 led to the development of multiple PVCs and short-lived VTs (n=4/4 hearts, FIG. 5E).

WT mice hearts = test: Optical mapping of ex vivo perfused hearts with exogenous IL-18 in the perfusate (WT); set-up: species or system mouse; settings: IL-18 via the perfusate (20 ng/min)
Description: as §1, §2

[4] = system: transient outward K+ current (Ito) in sickle mouse cardiomyocytes; test: Voltage clamp (patch clamp) of Ito in isolated cardiomyocytes; format: cell-based
Description: IL-18 reduces Ito in isolated sickle cardiomyocytes. Voltage clamp experiments were performed on fresh cardiomyocytes isolated from a sickle mouse exposed to IL-18 (FIG. 10).
Patch clamp protocol of Ito: Cardiomyocytes were isolated by standard enzymatic techniques and patch-clamp recordings of Ito were performed with an Axopatch-200B amplifier (Molecular Devices, Sunnyvale, Calif.) as described previously (El Gebeily et al., Pharmacol. 2010 Mar. 10; 629(1-3):96-103). Bath solution was Tyrode solution (mmol/L): 140 NaCl; 5.4 KCl; 1.8 CaCl2; 1 MgCl2; 0.33, Na2HPO4; 10 HEPES, 5.5 glucose (pH adjusted to 7.4 with NaOH). Pipette solution is (mmol/L): 110 K^+-aspartate, 20 KCl, 8 NaCl, 1 MgCl2, 1 CaCk2, 10 BAPTA, 4 K2ATP and 10 HEPES (pH adjusted to 7.2 KOH). Whole-cell voltage-clamp recordings were made using the ruptured patch-clamp technique with a patch-clamp amplifier, Axopatch 200 B (Axon Instruments, Foster City, USA). Pipettes resistances was ˜2 MΩ when filled with pipette solution. Series resistance in the whole-cell mode was compensated. Voltage-clamp currents were low-pass filtered at 1 kHz and digitized at 2 kHz. The total K+ current (Ipeak) was constructed from the current elicited by a series of 5 s test potentials at 10 mV increment from −110 mV to +50 mV from a holding potential of −80 mV at a frequency rate of 0.1 Hz. […] The data were recorded using pClamp 10.6 and analyzed with Clampfit (Axon Instruments, Foster City, USA). Current amplitudes were normalized to the cell capacitance and expressed as pA/pF. All experiments were carried out at room temperature (20-22° C.).

[5] = system: cardiac Nox4, p38, nitrotyrosine in sickle mice; test: Acute IL-18 administration in vivo, cardiac Nox4/p38/nitrotyrosine; set-up: species or system mouse; settings: within 5 minutes of IL-18 administration to sickle mice (5 ug/kg)
Description: Nitrotyrosine levels are considered a stable byproduct of the presence of peroxynitrite (ROS).

[6] = short-term administration, tumor necrosis factor-α-induced vaso-occlusion model
[7] = sustained (3 weeks) IL-18 inhibition
[8] = IL-18 via the perfusate (20 ng/min), sickle mice hearts
[9] = sickle mouse cardiomyocytes in the presence of IL-18

In the case of `Nc1ncn([C@H]2C[C@H](O)[C@@H](CO)O2)c(=O)n1` [decitabine, 5-Aza-2′-deoxycytidine], the “sickle cell patients responding with an increase in HbF levels” value ([1]; including patients who had failed to respond to hydroxyurea) is given as 100%, the dose-limiting toxicity ([1]; sickle cell patients) is given as “reversible neutropenia” and the “increase in total hemoglobin levels” value ([1]; sickle cell patients) is given as 2 g/dL. The reticulocyte counts ([1]; sickle cell patients) was “decreased”.

In the case of `C=CC1=C(C)c2cc3[n-]c(cc4[n-]c(cc5nc(cc1n2)C(C)=C5C=C)c(C)c4CCC(=O)O)c(CCC(=O)O)c3C.[Fe+2]` [heme], the IL-18 protein expression [2] is reported as “induced IL-18 protein expression” and the IL-18 protein expression ([2]; listed as Heme) is reported as “induces IL-18 protein expression”.

In the case of `NC(=O)NO` [hydroxyurea], the “hemolytic anemia at baseline” value (sickle mice; long-term administration in sickle mice) is given as “does not improve”, the animal survival (sickle mice; [6]) is given as “prolonged animal survival” and the “leukocyte recruitment to the microvasculature” value (sickle mice; [6]) is given as “significantly altered”. For the same molecule, the “frequency of painful crises, episodes of acute chest syndrome, transfusion requirements and hospitalizations” value ([3]; large multicenter study) was “marked decrease” and the survival ([3]; patients) was “improved survival”.

B1: IL-18bp: naturally occurring protein that binds to IL-18 and prevents it from activating its receptor (protein, UniProt Q9Z0M9 29-193, looked up)
Interleukin-18-binding protein: TSAPQTTATVLTGSSKDPCSSWSPAVPTKQYPALDVIWPEKEVPLNGTLTLSCTACSRFPYFSILYWLGNGSFIEHLPGRLKEGHTSREHRNTSTWLHRALVLEELSPTLRSTNFSCLFVDPGQVAQYHIILAQLWDGLKTAPSPSQETLSSHSPVSRSAGPGVA
In the case of B1, the “myocardial fibrosis (Picrosirius Red staining)” value (IL-18) is reported as “reduced”, the “myocardial fibrosis (Picrosirius Red staining)” value (IL-18; listed as IL-18 bp) is reported as “reduced myocardial fibrosis” and the “diastolic function (change in E/E′, LV filling pressures, on echocardiography)” value (IL-18) is reported as “improved cardiac function”. The “diastolic function (change in E/E′, LV filling pressures, on echocardiography)” value (IL-18; listed as IL-18 bp) was “improved”, the “cardiac IL-18R (β subunit) and Nox4 expression” value (IL-18; [7]) was “reduced cardiac Nox4 and IL-18R expression levels; also recorded: reduced cardiac IL-18R (β subunit) and Nox4 expression” and the myocardial apoptosis (IL-18; [7]) was “reduced myocardial apoptosis”.

B2: IL-18: exogenous IL-18 cytokine administered to mouse hearts, mice or cardiomyocytes (protein, UniProt P70380 36-192, looked up)
Interleukin-18: T1 sequence (P70380 36-192)
With B2 the “action potential duration (APD)” value (sickle mice hearts; [8]) was “prolonged APD; also recorded: APD prolongation”, the “conduction velocity (CV), transverse and longitudinal” value (sickle mice hearts; [8]) was “reduced trends in CV; also recorded: Trends in slowing” and the “rise time of action potentials” value (sickle mice hearts; [8]) was “Increased rise time”. For the same molecule, the “electrical effects after 20 minutes of IL-18 administration” value (sickle mice hearts; after 20 minutes of perfusion) was “APD prolongation, atrioventricular block, and a slowed heart rate”, the “development of multiple PVCs and short-lived VTs” value (sickle mice hearts; longer perfusion of IL-18, sickle hearts) was 4/4 and the “changes in APD, CV and rise time” value (WT mice hearts) was “no significant changes”. The “reduction of Ito” value ([4]; in 10 minutes, fresh cardiomyocytes isolated from a sickle mouse) was 47 % reduction, the “peak Ito” value ([4]; sickle group, IL-18 25 ng/mL, at 50 mV) was 3.1±0.8 pA/pF and the “Ito (in words)” value [4, 9] was “reduce Ito current; also recorded: further reduced”. The “fast inactivating Ito” value [4, 9] was “mostly abolished” and the “cardiac Nox4, p38 activation and nitrotyrosine levels” value [5] was “increases Nox4 levels; also recorded: acutely induces; also recorded: activated”.
